Residue numbers refer to the chain shown, from its start.
B1: HLA-G-0039 (antibody, V domains shown)
VH: EVQLLESGGGLVQPGGSLRLSCAASGFTFSSYAMNWVRQAPGKGLEWVSVISGSGVSTYYADSVKGRFTISRDNSRNTLSLQMNSLRAEDTAVYYCAKDGSYNYGYGDYFDYWGQGTLVTVSS
VL: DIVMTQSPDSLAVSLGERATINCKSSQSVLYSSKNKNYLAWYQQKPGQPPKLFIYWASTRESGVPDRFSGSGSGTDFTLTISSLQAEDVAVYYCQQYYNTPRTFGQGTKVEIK
notes: Human antibody from humanized OmniRat (OMT) rats
B2: HLA-G-0041 (antibody, V domains shown)
VH: B1 VH with S31T, A33G, N35S, S54G, R76K, S80Y, S85R
VL: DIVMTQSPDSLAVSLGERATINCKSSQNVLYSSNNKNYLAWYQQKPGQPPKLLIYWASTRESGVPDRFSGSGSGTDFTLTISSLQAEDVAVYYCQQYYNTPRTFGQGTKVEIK
notes: as for B1
B3: HLA-G-0031 (antibody, V domains shown)
VH: QVKLMQSGAALVKPGTSVKMSCNASGYTFTDYWVSWVKQSHGKRLEWVGEISPNSGASNFDENFKDKATLTVDKSTSTAYMELSRLTSEDSAIYYCTRSSHGSFRWFAYWGQGTLVTVSS
VL: AIVLNQSPSSIVASQGEKVTITCRASSSVSSNHLHWYQQKPGAFPKFVIYSTSQRASGIPSRFSGSGSGTSYSFTISRVEAEDVATYYCQQGSSNPYTFGAGTKLELK
notes: Rat monoclonal antibody obtained from CD rats
B4: HLA-G-0090 (antibody, V domains shown)
VH: QVQLQQSGPGLLKPSQTLSLTCAISGDSVSSNRAAWNWIRQSPSRGLEWLGRTYYRSKWYNDYAVSVQGRITLIPDTSKNQFSLRLNSVTPEDTAVYYCASVRAVAPFDYWGQGVLVTVSS
VL: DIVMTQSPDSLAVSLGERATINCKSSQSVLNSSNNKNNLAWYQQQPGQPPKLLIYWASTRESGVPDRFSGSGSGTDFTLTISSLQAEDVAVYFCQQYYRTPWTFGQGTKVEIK
notes: as for B1

Experiments:
[1] = molecular target: T1, recombinant soluble human HLA-G β2M MHC class I complex, monomer (human); assay: blocking ELISA on biotinylated wt HLA-G; competitor c-myc ILT-2
T1 construct: His tagged; biotinylated where coated on streptavidin plates, non-biotinylated in SPR; also called HLA-G-0003; wt HLA-G (monomer)
Protocol: Streptavidin coated plates (Nunc, MicroCoat #11974998001) were coated with 25 µl/well biotinylated human wt HLA-G at a concentration of 500-1000 ng/ml and incubated at 4° C. overnight. After washing (3×90 μl/well with PBST-buffer) 25 μl anti-HLA-G samples were added in decreasing concentrations starting at 10 or 3 μg/ml, then diluted in 1:3 or 1:2 steps and incubated 1 h at RT. After washing (3×90 μl/well with PBST-buffer) 25 μl/well c-myc-tagged recombinant ILT-2 receptor was added at a concentration of 200 ng/ml and incubated for 1 h at room temperature. […] After washing (3×90 μl/well with PBST-buffer), 25 μl/well TMB substrate (Roche, 11835033001) was added and incubated until OD 2-3. Measurement took place on a Tecan Safire 2 instrument at 370/492 nm
The table above summarizes the extent of ILT-2 and ILT-4 blocking of different antibodies bound to HLA-G at a concentration of 3 μg/ml, relative to an HLA-G:receptor interaction that is not blocked. HLA-G-0090 was tested in a separate experiment for ILT2 blockade, ILT4 blocking was not assessed

[2] = molecular target: T1, recombinant soluble human HLA-G β2M MHC …; assay: ELISA, biotinylated wt HLA-G monomer on streptavidin plate
Protocol: (§1) Streptavidin coated plates (Nunc, MicroCoat #11974998001) were coated with 25 μl/well biotinylated human wt HLA-G at a concentration of 250 ng/ml and incubated at 4° C. overnight. After washing (3×90 μl/well with PBST-buffer) 25 μl anti-HLA-G samples (1:3 dilution in OSEP buffer) or reference antibody (G233, Thermo/Pierce #MA1-19449, 500 ng/ml) were added and incubated 1 h at RT. After washing (3×90 μl/well with PBST-buffer) 25 μl/well goat-anti-mouse H+L-POD (Biorad #170-6561, 1:2000 in OSEP) or donkey-anti-rabbit IgG POD (GE #NA9340V, 1:5000 in OSE) was added and incubated at RT for 1 h on shaker. For detection of rat IgGs a mixture of goat-anti-rat IgG1-POD (Bethyl #A110-106P), goat-anti-rat IgG2a-POD (Bethyl #A110-109P) and goat-anti-rat IgG2b-POD (Bethyl #A110-111P) 1:10000 in OSEP was added and incubated at RT for 1 h on shaker. After washing (6×90 μl/well with PBST-buffer) 25 μl/well TMB substrate (Roche, 11835033001) was added and incubated until OD 2-3. Measurement took place on a Tecan Safire 2 instrument at 370/492 nm.
(§2) The above table summarizes the binding of different rat anti-human HLA-G monoclonal antibodies, derived from wt protein IMS. Shown are the relative EC50 values [ng/ml] of the respective binding to rec. wt monomeric, dimeric and trimeric HLA-G proteins as assessed by ELISA. The ELISA was set up by coating the biotinylated wt HLA-G antigen to strepdavidin plates. After incubation and washing steps, the respective antibodies were bound in a concentration range from 10-0 μg in 1:2 dilution steps. Detection of bound antibodies was carried out by anti-Fc-antibody-POD conjugates. EC50 values were determined from the resulting binding curves at the antibody concentrations generating the half-maximal signal. In case of the non-biotinylated HLA-G dimer and trimer antigens, immobilization was carried out by random coating on assay plates.

[3] = molecular target: T1, recombinant soluble human HLA-G β2M MHC …; assay: blocking ELISA on biotinylated wt HLA-G; competitor ILT-4
[4] = molecular target: T2, modified human HLA-G β2M MHC class I complex (HLA-G specific amino acids replaced by HLA-A consensus amino … (human)); assay: ELISA, biotinylated degrafted HLA-G on streptavidin plate
T2 construct: Counter antigen: single-chain fusion of peptide, beta-2 microglobulin and HLA-G in which 14 HLA-G unique surface positions were mutated to an HLA-A consensus; also called degrafted HLA-G; HLA-G-0007
Protocol: as §1, with “degrafted” for “wt”, “rat serum (1:600 dilution in OSEP)” for “reference antibody (G233, Thermo/Pierce #MA1-19449, 500 ng/ml)”, “μl/well” for “μl/well goat-anti-mouse H+L-POD (Biorad #170-6561, 1:2000 in OSEP) or donkey-anti-rabbit IgG POD (GE #NA9340V, 1:5000 in OSE) was added and incubated at RT for 1 h on shaker. For detection”, “of” for “of rat IgGs”
(§3) The above table summarizes the binding of different rat anti-human HLA-G monoclonal antibodies, derived from wt protein IMS both of wt as well as OMT rats. Shown are the relative EC50 values [ng/ml] and maximal OD of the respective binding to rec. wt monomeric HLA-G protein or the socalled gegrafted HLA-G (HLA-A consensus sequence on HLA-G backbone) protein as assessed by ELISA. The ELISA was set up by coating the biotinylated wt HLA-G or consensus antigen to strepdavidin plates. After incubation and washing steps, the respective antibodies were bound in a concentration range from 10-0 μg in 1:2 dilution steps. Detection of bound antibodies was carried out by anti-Fc-antibody-POD conjugates. EC50 values were determined from the resulting binding curves at the antibody concentrations generating the half-maximal signal.

[5] = molecular target: T1, recombinant soluble human HLA-G β2M MHC …; assay: ELISA (EC50 rel), biotinylated wt HLA-G monomer on streptavidin plate
Protocol: as §1, §3

[6] = molecular target: T3, recombinant soluble human HLA-G β2M MHC class I complex, dimer (human); assay: ELISA, HLA-G dimer coated at random on plate
T3 construct: Non-biotinylated; also called HLA-G Dimer; dimeric HLA-G
Protocol: as §2

[7] = molecular target: human HLA-G expressed on cells (JEG3 natural; SKOV3 HLA-G+ and PA-TU-8902 HLA-G+ transfectants) (human); assay: cell-based or functional assay

| Binder | % inh. ILT2 (3 µg/ml antibody) [1] | EC50 [2] | % inh. ILT4 (3 µg/ml antibody) [3] | Max. OD [4] | EC50 [5] | EC50 [6] | % TNF release (restoration) by monocytes (different donor) co-cultured with JEG-3 wt cells, LPS; antibody 0.16 µg/ml [7] | % TNF release (restoration) by monocytes (different donor) co-cultured with JEG-3 wt cells, LPS; antibody 0.63 µg/ml [7] | % TNF release (restoration) by monocytes (different donor) co-cultured with JEG-3 wt cells, LPS; antibody 2.5 µg/ml [7] | % TNF release (restoration) by monocytes (different donor) co-cultured with JEG-3 wt cells, LPS; antibody 10 µg/ml [7] |
| --- | --- | --- | --- | --- | --- | --- | --- | --- | --- | --- |
| B1 | 14% | 7.35 nM | 23.9% | 0.13 OD | 7.35 ng/mL | 4.1 nM |  |  |  |  |
| B2 | 17.4% | 4.95 nM | 18.4% | 0.15 OD | 8.6 ng/mL | 5.31 nM | 44% | 66% | 59% | 40% |
| B3 | 72.8% | 7.19 nM | 39.8% | 0.13 OD | 7.19 ng/mL | 1.87 nM | 14% | 44% | 67% | 74% |
| B4 |  |  |  | 0.2 OD | 10.4 ng/mL |  | 198% | 219% | 233% | 221% |

— patent US20250051455A1 (Hoffmann-La Roche, published 2025)
